Patent US20210261648A1 (published 2021)

Legend:
Test in all cases: SPR, captured antibody, FcgR analyte
[1] = molecular target: T1, FcγRIIb extracellular domain with C-terminal His tag (human, UniProt P31994 43-217)
T1 construct: extracellular domain; also called FcgRIIb
T1 sequence (looked up): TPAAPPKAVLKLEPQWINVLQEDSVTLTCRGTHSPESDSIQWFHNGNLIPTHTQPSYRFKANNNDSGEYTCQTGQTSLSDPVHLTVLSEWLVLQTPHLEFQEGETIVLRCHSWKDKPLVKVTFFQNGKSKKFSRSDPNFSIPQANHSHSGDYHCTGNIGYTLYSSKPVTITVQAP
Description: (§1) Relative binding activities were calculated for the results of analyzing interactions with the respective FcγRs according to the following method.

[2] = molecular target: T2, FcγRIa extracellular domain with C-terminal His tag (human, UniProt P12314 16-292)
T2 construct: also called FcgRIa
Description: as §1

[3] = molecular target: T3, FcγRIIa type H extracellular domain with C-terminal His tag (human, UniProt P12318 34-217)
T3 construct: extracellular domain; also called FcgRIIaH; FcγRIIa H
T3 sequence (looked up): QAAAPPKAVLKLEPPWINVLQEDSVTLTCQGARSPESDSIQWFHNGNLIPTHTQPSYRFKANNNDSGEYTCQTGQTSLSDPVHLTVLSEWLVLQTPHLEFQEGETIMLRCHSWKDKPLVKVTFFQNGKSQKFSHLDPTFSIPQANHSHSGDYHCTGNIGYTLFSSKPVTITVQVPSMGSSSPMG
Description: as §1

T2 sequence (P12314 16-292): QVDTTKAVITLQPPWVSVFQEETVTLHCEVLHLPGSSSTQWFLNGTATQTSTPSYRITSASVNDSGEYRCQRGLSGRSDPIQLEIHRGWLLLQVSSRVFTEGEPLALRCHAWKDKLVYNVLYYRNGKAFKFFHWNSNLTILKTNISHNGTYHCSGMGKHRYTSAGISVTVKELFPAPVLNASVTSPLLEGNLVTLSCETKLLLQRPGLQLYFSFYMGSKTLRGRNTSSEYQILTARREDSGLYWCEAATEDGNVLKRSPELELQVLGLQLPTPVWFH

| Binder | relative binding activity [1] | relative binding activity [2] | relative binding activity [3] |
| --- | --- | --- | --- |
| IL6R-BP148/IL6R-L (antibody, human IgG1, kappa) heavy: QVQLQESGPGLVKPSETLSLTCAVSGHSISHDHAWSWVRQPPGEGLEWIGFISYSGITNYNPSLQGRVTISRDNSKNTLYLQMNSLRAEDTAVYYCARSLARTTAMDYWGEGTLVTVSSASTKGPSVFPLAPSSKSTSGGTAALGCLVKDYFPEPVTVSWNSGALTSGVHTFPAVLQSSGLYSLSSVVTVPSSSLGTQTYICNVNHKPSNTKVDKKVEPKSCDKTHTCPPCPAPDYLGDDSVFLFPPKPKDTLMISRTPEVTCVVVDVSHEDPEVKFNWYVDGVEVHNAKTKPREEQYNSTYRVVSVLTVLHQDWLNGKEYKCKVSNAALPKPIEKTISKAKGQPREPQVYTLPPSRDELTKNQVSLTCLVKGFYPSDIAVEWESNGQPENNYKTTPPVLDSDGSFFLYSKLTVDKSRWQQGNVFSCSVMHEALHNHYTQESLSLSP light: not shown | 176 relative (IL6R-BF648/IL6R-L = 100) | 33 relative (IL6R-BF648/IL6R-L = 100) | 462 relative (IL6R-BF648/IL6R-L = 100) |
| IL6R-BP149/IL6R-L (antibody, human IgG1, kappa) heavy: QVQLQESGPGLVKPSETLSLTCAVSGHSISHDHAWSWVRQPPGEGLEWIGFISYSGITNYNPSLQGRVTISRDNSKNTLYLQMNSLRAEDTAVYYCARSLARTTAMDYWGEGTLVTVSSASTKGPSVFPLAPSSKSTSGGTAALGCLVKDYFPEPVTVSWNSGALTSGVHTFPAVLQSSGLYSLSSVVTVPSSSLGTQTYICNVNHKPSNTKVDKKVEPKSCDKTHTCPPCPAPDYLGDDSVFLFPPKPKDTLMISRTPEVTCVVVDVSHEDPEVKFNWYVDGVEVHNAKTKPREEQDNSTYRVVSVLTVLHQDWLNGKEYKCKVSNAALPKPIEKTISKAKGQPREPQVYTLPPSRDELTKNQVSLTCLVKGFYPSDIAVEWESNGQPENNYKTTPPVLDSDGSFFLYSKLTVDKSRWQQGNVFSCSVMHEALHNHYTQESLSLSP light: not shown | 173 relative (IL6R-BF648/IL6R-L = 100) | 29 relative (IL6R-BF648/IL6R-L = 100) | 401 relative (IL6R-BF648/IL6R-L = 100) |
| IL6R-BP152/IL6R-L (antibody, human IgG1, kappa) heavy: QVQLQESGPGLVKPSETLSLTCAVSGHSISHDHAWSWVRQPPGEGLEWIGFISYSGITNYNPSLQGRVTISRDNSKNTLYLQMNSLRAEDTAVYYCARSLARTTAMDYWGEGTLVTVSSASTKGPSVFPLAPSSKSTSGGTAALGCLVKDYFPEPVTVSWNSGALTSGVHTFPAVLQSSGLYSLSSVVTVPSSSLGTQTYICNVNHKPSNTKVDKKVEPKSCDKTHTCPPCPAPDYLGDDSVFLFPPKPKDTLMISRTPEVTCVVVDVSHEDPEVKFNWYVDGVEVHNAKTKPREEQDNSTYRVVSVLTVLHQDWLNGKEYKCKVSNAALPRPIEKTISKAKGQPREPQVYTLPPSRDELTKNQVSLTCLVKGFYPSDIAVEWESNGQPENNYKTTPPVLDSDGSFFLYSKLTVDKSRWQQGNVFSCSVMHEALHNHYTQESLSLSP light: not shown | 178 relative (IL6R-BF648/IL6R-L = 100) | 34 relative (IL6R-BF648/IL6R-L = 100) | 548 relative (IL6R-BF648/IL6R-L = 100) |
| IL6R-BP150/IL6R-L (antibody, human IgG1, kappa) heavy: QVQLQESGPGLVKPSETLSLTCAVSGHSISHDHAWSWVRQPPGEGLEWIGFISYSGITNYNPSLQGRVTISRDNSKNTLYLQMNSLRAEDTAVYYCARSLARTTAMDYWGEGTLVTVSSASTKGPSVFPLAPSSKSTSGGTAALGCLVKDYFPEPVTVSWNSGALTSGVHTFPAVLQSSGLYSLSSVVTVPSSSLGTQTYICNVNHKPSNTKVDKKVEPKSCDKTHTCPPCPAPEYLGDDSVFLFPPKPKDTLMISRTPEVTCVVVDVSHEDPEVKFNWYVDGVEVHNAKTKPREEQYNSTYRVVSVLTVLHQDWLNGKEYKCKVSNAALPRPIEKTISKAKGQPREPQVYTLPPSRDELTKNQVSLTCLVKGFYPSDIAVEWESNGQPENNYKTTPPVLDSDGSFFLYSKLTVDKSRWQQGNVFSCSVMHEALHNHYTQESLSLSP light: not shown | 183 relative (IL6R-BF648/IL6R-L = 100) | 30 relative (IL6R-BF648/IL6R-L = 100) | 770 relative (IL6R-BF648/IL6R-L = 100) |
